{"source": "paper PMC12828764", "about": "“The electrophilic metabolite of kynurenine, kynurenine-CKA, requires C151 in Keap1 to derepress Nrf2” (Redox Biology, 2025)", "key": {"[1]": {"molecular_target": "Cys151 (UniProt position 151, SMGEKCVLHVM)", "settings": "not stated (reduced, unmodified C151 implied); cited from earlier work"}, "[2]": {"system": "T1, Keap1", "T1 construct": "cell lysate CETSA", "experiment": "intact-protein MS and MS/MS adduct mapping, UV-Vis reaction kinetics with purified Keap1-BTB (no reaction with C151S); the IC50 is from ITDRF-CETSA of Keap1-mCherry in cell lysate", "format": "binding"}}, "data": [{"compound": "Kelch-like ECH-associated protein 1 (Keap1), BTB domain (not stated for the recombinant protein (probably Homo sapiens, inferred))", "values": [{"measurement": "pKa", "setting": "[1]", "value": 6.9}]}, {"compound": "Nc1ccccc1C(=O)/C=C/C(=O)O", "note": "(mixture of isomers) [Kyn-CKA, (E)- and (Z)-(4-(2-aminophenyl)-4-oxobut-2-enoic acids]", "values": [{"measurement": "EC50", "setting": "[2]", "value": 12, "unit": "µM"}]}]}
